This passage reports Kd results from PMC9394474.

B1: unnamed (parent)
chain 1: TIEALFQ
chain 2: not shown

The assay covers variants of B1. Description: ITC. Conditions: with partner chain of the complex shown.
In the case of chain 1 T1A, the Kd is 17 µM.
